Positions count from the first letter of the chain named. Values belong to the molecule of their own block, whether it stands above or below them.
Legend:
SHP-1 = target: T1, SHP-1 (Mus musculus, UniProt P29351); assay: In vitro PTPase assay, GST/SHP-1; assay type: biochemical
T1 construct: made in house
Procedure: In vitro PTPase activities were measured using the commercial protein tyrosine phosphatase assay kit (Upstate Biotechnology, Inc. (“UBI”)) following established procedure known to one of skill in the art. […] Briefly, 0.01 µg of GST/PTPase fusion proteins was incubated in 50 µl of Tris buffer (10 mM Tris, pH 7.4) containing different concentrations of inhibitors or chemicals (0-1,000 µg/ml) at 22° […] 100 µl of Malachite Green solution was added and incubated for 5 minutes, and the absorbance at 660 nm was measured after 5 minutes.
To assess the reversibility of inhibition of SHP-1 by PTPase inhibitors, GST/SHP-1 fusion protein bound on glutathione beads were pre-incubated in cold Tris buffer or Tris buffer containing the PTPase inhibitors at 4° C. for 30 minutes. The beads were then either subjected to in vitro PTPase assays or washed 3 times in Tris buffer then subjected to in vitro PTPase assays.
Briefly, individual PTPases (0.1 µg/reaction) in 50 µL of PTPase buffer (50 mM Tris, pH 7.4) were incubated at 22° C. for 10 minutes or as indicated in the absence or presence of inhibitory compounds. Substrates (0.2 mM phosphotyrosine peptide) were then added and allowed to react at 22° C. for 18 hrs. PTPase activity of individual reactions was measured by adding 100 µL of malachite green solution (UBI) and then quantifying the amounts of free phosphate cleaved by the PTPase from the peptide substrate by spectrometry (OD660 nm). […] Relative PTPase activities were calculated based on the formula: (PTPase activity in the presence of an inhibitory compound/PTPase activity in the absence of the compound)× 100%. To assess the reversibility of PTPase inhibition, GST fusion proteins of the PTPases bound on glutathione beads (Pharmacia) were pre-incubated with cold Tris buffer (50 mM Tris, pH 7.0) or Tris buffer containing the inhibitor at 4° C. for 30 minutes. The beads were then washed three times in cold Tris buffer or not washed prior to subjecting to in vitro PTPase assays.

PRL-3 = target: T2, PRL-3 (Homo sapiens, UniProt O75365); assay: In vitro PTPase assay, recombinant PRL-3; assay type: biochemical; details: DiFMUP substrate
T2 construct: made in house; host or cells: E. coli DH5a
Source text: Sodium stibogluconate, suramin, sodium orthovanadate and GST fusion protein of SHP-1 have been described previously (Pathak et al., J. Imumol. 167, 3391 (2001)). Meglumine antimonate was obtained from Aventis. cDNAs of human PRL-1, PRL-2 and PRL-3 coding region were derived by RT-PCR from H9 cells (Safai, et al., Lancet 1, 1438 (1984)) and inserted in frame into the pGEX vector. cDNA of PRL-1R86 was generated by recombinant DNA technique using PRL-1 cDNA as template following established procedures (Jiao, et al., Mol. Cell. Biol. 16, 6985 (1996)). GST fusion proteins of the PRL phosphatases were prepared from DH5a bacteria transformed with the pGEX fusion protein constructs as described previously (Yi, et al., Mol. Cell. Biol. 12, 836 (1992)). cDNAs encoding the PRLs tagged at the N-termini with the Flag epitope (Castrucci, et al., J. Virol. 66, 4647 (1992)) were generated via recombinant DNA technique, sequenced to confirm their identities and cloned into the pBabepuro vector (Yang, et al., Blood 91, 3746 (1998)). Anti-Flag monoclonal antibody (M2, Sigma) was purchased from a commercial source. A synthetic phosphotyrosine peptide (Arg-Arg-Leu-Ile-Glu-Asp-Ala-Gle-Tyr-Al- -a-Ala-Arg-Gly (SEQ ID NO: 3), wherein the tyrosine is phosphorylated; UBI) and DiFMUP (6,8-difluoro-4-methylumbelliferyl phosphate, Molecular Probes) were purchased as substrates for PTPase assays.
In vitro PTPase assays were used to determine the effects of compounds on recombinant PTPases, following established procedures using a synthetic phosphotyrosine peptide or DiFMUP as the substrate (Pathak et al., J. Imumol. 167, 3391 (2001)). Briefly, individual PTPases (0.1 µg/reaction) in 50 µL of PTPase buffer (50 mM Tris, pH 7.4) were incubated at 22° C. for 10 minutes or as indicated in the absence or presence of inhibitory compounds. Substrates (0.2 mM phosphotyrosine peptide) were then added and allowed to react at 22° C. for 18 hrs. PTPase activity of individual reactions was measured by adding 100 µL of malachite green solution (UBI) and then quantifying the amounts of free phosphate cleaved by the PTPase from the peptide substrate by spectrometry (OD660 nm). PTPase assays using DiFMUP as a substrate were conducted following a previously described procedure (Matter, et al., Biochem. Biophys. Res. Comm. 283, 1061 (2001)). Relative PTPase activities were calculated based on the formula: (PTPase activity in the presence of an inhibitory compound/PTPase activity in the absence of the compound)× 100%. To assess the reversibility of PTPase inhibition, GST fusion proteins of the PTPases bound on glutathione beads (Pharmacia) were pre-incubated with cold Tris buffer (50 mM Tris, pH 7.0) or Tris buffer containing the inhibitor at 4° C. for 30 minutes. The beads were then washed three times in cold Tris buffer or not washed prior to subjecting to in vitro PTPase assays.

MKP1 = target: T3, MKP1 (Homo sapiens, UniProt P28562); assay: In vitro PTPase assay, GST/MKP1; assay type: biochemical; details: section VII comparison
T3 construct: made in house; host or cells: E. coli DH5a
T3 sequence (P28562 13-367 limits assumed): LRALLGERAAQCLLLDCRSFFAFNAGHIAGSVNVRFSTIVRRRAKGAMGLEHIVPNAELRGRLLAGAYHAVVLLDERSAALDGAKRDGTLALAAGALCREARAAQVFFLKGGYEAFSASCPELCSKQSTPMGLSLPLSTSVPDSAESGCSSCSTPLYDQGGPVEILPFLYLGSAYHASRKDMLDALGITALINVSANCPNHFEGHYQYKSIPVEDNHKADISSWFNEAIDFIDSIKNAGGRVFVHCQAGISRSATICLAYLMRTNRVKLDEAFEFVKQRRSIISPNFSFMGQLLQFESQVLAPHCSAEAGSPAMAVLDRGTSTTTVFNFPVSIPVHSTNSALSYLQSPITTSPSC
Procedure: In vitro PTPase activities were measured using the commercial protein tyrosine phosphatase assay kit (Upstate Biotechnology, Inc. (“UBI”)) following established procedure known to one of skill in the art. This assay measures the in vitro dephosphorylation of a synthetic phosphotyrosine peptide of the sequence Arg-Arg-Leu-Ile-Glu-Asp-Ala-Gle-T- -yr-Ala-Ala-Arg-Gly, wherein the tyrosine is phosphorylated (SEQ ID NO: 3). Briefly, 0.01 µg of GST/PTPase fusion proteins was incubated in 50 µl of Tris buffer (10 mM Tris, pH 7.4) containing different concentrations of inhibitors or chemicals (0-1,000 µg/ml) at 22° C. for 10 minutes, followed by addition of 0.2 mM of the phosphotyrosine peptide and incubation at 22° C. for 18 hours. 100 µl of Malachite Green solution was added and incubated for 5 minutes, and the absorbance at 660 nm was measured after 5 minutes.
(§1) In vitro PTPase assays were used to determine the effects of levamisole (Sigma), pentamidine (American Pharmaceutical Partners, Inc.), and ketoconazole (Sigma) on recombinant PTPases, following established procedures (Pathak et al., J. Imumol. 167, 3391 (2001); Pathak et al., Leukemia 16, 2285 (2002), Yi et al., J. Immunol. 169, 5978 (2002)) using a synthetic phosphotyrosine peptide or DiFMUP as the substrate as detailed above in section I.A.2.

GSTm8 = assay: In vitro PTPase assay, GSTm8; assay type: biochemical; details: 3-4 μg/ml or 10-100 μg/ml
Source text: as §1

[1] = test system: T4, synthetic phosphotyrosine peptide Arg-Arg-Leu-Ile-Glu-Asp-Ala-Gle-Tyr-Ala-Ala-Arg-Gly, wherein the tyrosine is phosphorylated
T4 sequence: RRLIEDAEYAARG

[2] = target: T5, synthetic phosphotyrosine peptide Arg-Arg-Leu-Ile-Glu-Asp-Ala-Gle-Tyr-Ala-Ala-Arg-Gly, wherein the tyrosine is phosphorylated
T5 chain: RRLIEDAEYAARG

T2 sequence (O75365 whole entry): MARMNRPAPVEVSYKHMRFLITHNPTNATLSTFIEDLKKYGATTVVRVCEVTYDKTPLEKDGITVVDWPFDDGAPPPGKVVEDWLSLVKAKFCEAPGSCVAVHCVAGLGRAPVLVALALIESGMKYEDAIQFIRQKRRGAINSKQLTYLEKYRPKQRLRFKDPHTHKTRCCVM

inhibition of SHP-1 compared with sodium stibogluconate (SHP-1; comparable conditions): less effective
inhibition of PRL-3 compared with sodium stibogluconate (PRL-3): less effective
Molecule: Cc1ccc(C(=O)Nc2ccc(S(=O)(=O)O)c3cc(S(=O)(=O)O)cc(S(=O)(=O)O)c23)cc1NC(=O)c1cccc(NC(=O)Nc2cccc(C(=O)Nc3cc(C(=O)Nc4ccc(S(=O)(=O)O)c5cc(S(=O)(=O)O)cc(S(=O)(=O)O)c45)ccc3C)c2)c1 [Suramin]
inhibition of GST/SHP-1 after washing (reversibility) (SHP-1; pre-incubated with inhibitor, beads washed): almost completely removed by the washing process

inhibitory activity against SHP-1 (SHP-1; 3-4 μg/ml or 10-100 μg/ml): no obvious inhibitory activity
inhibition of MKP1 (MKP1): substantial inhibition
inhibitory activity against GSTm8 (GSTm8): no obvious inhibitory activity
Molecule: c1ccc([C@H]2CN3CCSC3=N2)cc1 [levamisole]

Molecule: [Na+].[Na+].[Na+].[O]=[V]([O-])([O-])[O-] [sodium orthovanadate]
inhibition of PRL-3 compared with sodium stibogluconate (PRL-3): less effective

Molecule: GST fusion protein of SHP-1
PTPase activity against the peptide substrate (660 nm absorbance, malachite green) [1]: 660 nm absorbance approximately 0.6 above background (0.03)

Molecule: GST fusion protein of SHP-2
PTPase activity against the peptide substrate (660 nm absorbance, malachite green) [1]: 660 nm absorbance approximately 0.6 above background (0.03)

Molecule: GST fusion protein of mitogen-activated protein kinase phosphatase 1 (MKP1)
PTPase activity against the peptide substrate (660 nm absorbance, malachite green) [1]: 660 nm absorbance approximately 0.6 above background (0.03)

Molecule: GST fusion protein of protein tyrosine phosphatase 1B (PTP1B)
PTPase activity against the peptide substrate (660 nm absorbance, malachite green) [1]: 660 nm absorbance approximately 0.6 above background (0.03)

B1: GST fusion protein of PRL-1R86 (protein)
chain: MARMNRPAPVEVTYKNMRFLITHNPTNATLNKFIEELKKYGVTTIVRVCEATYDTTLVEKEGIHVLDWPFDDGAPPSNQIVDDWLRLVKIKFREEPGCCIAVHCVAGLGRAPVLVALALIEGGMKYEDAVQFIRQKRRGAFNSKQLLYLEKYRPKMRLRFKDSNGHRNNCCIQ
in vitro PTPase activity [2]: showed in vitro PTPase activity similar to that of wild type PRL-1

B2: Flag-PRL-1 (protein)
chain: B1 chain with R86S
PTPase activity of anti-Flag immunocomplexes (NIH3T3 transfectants) [2]: a markedly higher PTPase activity (about 23 folds) over that of control transfectants
phosphatase activity of anti-Flag immunocomplexes (WM9 transfectants) [2]: showed phosphatase activities well above the background activity of the vector control cells

B3: Flag-PRL-1R86 (protein)
chain: B1 chain
phosphatase activity of anti-Flag immunocomplexes (WM9 transfectants) [2]: showed phosphatase activities well above the background activity of the vector control cells
